# Laboratory results published in patent US20090311265A1 (CRUCELL HOLLAND B V, published 2009).
# How the values were obtained:
# [1] = biological target: T1, soluble recombinant HA (sHA) of H5N1TV (influenza A virus A/Vietnam/1194/2004 …, UniProt Q6J8F6 17-528); assay: immunoblot, reducing SDS-PAGE
# [2] = biological target: recombinant HA, subtype H3 (A/Wyoming/3/2003(H3N2)) (influenza A virus A/Wyoming/3/2003 …); assay: ELISA, coated HA, IgG 5 µg/ml
# [3] = biological target: T2, recombinant HA, subtype H5 (A/Vietnam/1203/2004 (H5N1)) (influenza A virus A/Vietnam/1203/2004 …, UniProt Q80A26 6-554); assay: ELISA, coated HA, IgG 5 µg/ml
# [4] = biological target: full-length HA from isolate A/Vietnam/1194/2004 (H5N1TV) on PER.C6 cells (influenza A virus A/Vietnam/1194/2004 …, UniProt Q80A26 6-554); assay: flow cytometry, transfected PER.C6 cells
# [5] = biological target: recombinant HA, subtype H1 (A/New Caledonia/20/99 (H1N1)) (influenza A virus A/New Caledonia/20/99 …, UniProt Q289M7 18-565); assay: ELISA, coated HA, IgG 5 µg/ml
# [6] = biological target: T2, recombinant HA, subtype H5 …; assay: competition ELISA on coated HA, IgG 10 µg/ml, competitor: phage antibodies
# [7] = biological target: T1, soluble recombinant HA (sHA) of H5N1TV; assay: immunoblot (data not shown)
Binder,binding result [1],OD 492 nm [2] [OD 492 nm],OD 492 nm [3] [OD 492 nm],flow cytometry signal at 0.1 µg/ml [4],flow cytometry signal at 1 µg/ml [4],flow cytometry signal at 10 µg/ml [4],OD 492 nm [5] [OD 492 nm],residual binding of phage antibody in the presence of the IgG [6] [%],binding result [7]
"CR6307 (antibody, V domains shown) VH: QVQLVQSGGGLVKPGGSLRLSCAASGFTFSSYSMNWVRQAPGKGLEWVSSISSSSSYIYYVDSVKGRFTISRDNAKNSLYLQMNSLRAEDTAVYYCARGGGSYGAYEGFDYWGQGTLVTVSS VL: EIVLTQSPGTLSLSPGERATLSCRASQRVSSYLAWYQQKPGQAPRLLIYGASTRAAGIPDRFSGSGSGTDFTLTISRLEPEDSAVYYCQQYGRTPLTFGGGTKVEIKR",binds,0.11,0.99,82.4,267,485,,,
"CR6343 (antibody, V domains shown) VH: QVQLVQSGAEVKKPGSSVKVSCKASGVTFSYYAMSWVRQAPGQGLEWMGGISPMFGTTTYAQKFQGRVTITADDSTSTAYMEVRSLRSEDTAVYYCARSSNYYDSVYDYWGQGTLVTVSS VL: QSVVTQPPSESVAPGQTARITCGGHNIGSNSVHWYQQKPGQAPVLVVYDNSDRPSGIPERFSGSNSGNTATLTISRVEAGDEADYYCQVWGSSSDHYVFGTGTKVTVLG",,0.07,0.76,,,,1.28,> 25,
"CR6301 (antibody, V domains shown) VH: EVQLVESGGGLVQPGGSLRLSCAASGFTFSIYAMSWVRQAPGKGLEWVSAISSSGDSTYYADSVKGRFTISRDNARNTLYLQMNSLRAEDTAVYYCARAYGYTFDPWGQGTLVTVSS VL: not shown",,,,,,,,,binds
"CR6296 (antibody, V domains shown) VH: EVQLVETGAEVKKPGASVKVSCKASGYTFTSYYMHWVRQAPGQGLEWMGWINPNSGGTNYAQKFQGRVTMTRDTSISTAYMELSRLRSDDTAVYYCAREGKWGPQAAFDIWGQGTMVTVSS VL: EIVMTQSPGTLSLSPGERATLSCRASQSVSSSYLAWYQQKPGQAPRLLIYDASSRATDIPDRFSGSGSGTDFTLTISRLEPEDFAVYYCQQYGSSLWTFGQGTKVEIKR",,,,,,,,,binds
"CR6272 (antibody, V domains shown) VH: QMQLVQSGAEVKKPGSSVKVSCKASGGTFSSYAITWVRQAPGQGLEWMGGIIGMFGSTNYAQNFQGRVTITADESTSTAYMELSSLRSEDTAVYYCARSTGYYPAYLHHWGQGTLVTVSS VL: QSALTQPRSVSGSPGQSVTISCTGTSSDVGGYNYVSWYQQHPGKAPKLMIYDVSKRPSGVPDRFSGSKSGNTASLTISGLQAEDEADYYCSSYTSSSTHVFGTGTKVTVLG",,0.07,0.58,,,,0.81,> 25,
"CR6323 (antibody, V domains shown) VH: EVQLVESGAEVKKPGSSVKVSCKASGGTFSSYGISWVRQAPGQGLEWMGDIIGMFGSTNYAQNFQGRLTITADESTSTAYMELSSLRSEDTAVYYCARSSGYYPAYLPHWGQGTLVTVSS VL: not shown",binds,0.07,1.89,33.4,117,445,2.32,,
"CR6339 (antibody, V domains shown) VH: EVQLVESGAEVKKPGSSVKVSCKASGGIFNSYAISWVRQAPGQGLEWMGGIIAIFHTPKYAQKFQGRVTITADESTNTAYMELRSLKSEDTALYYCARGSTYDFSSGLDYWGQGTLVTVSS VL: QAGLTQPPSVSVAPGQTARITCGGNNIGSKSVHWYQQKPGQAPVLVVYDDSDRPSGIPERFSGSNSGNTATLTISRVEAGDEADYYCQVWDSSSDHVVFGGGTKLTVLG",,0.07,0.81,,,,,> 25,
